Laboratory results reported in article PMC3593993.

Biological target: constitutively active Go2α (Go2αQ205L), Gal4 DNA-binding domain fusion (pGBKT7-Go2αQ205L) (UniProt P18872)
Assay: two-hybrid

Substance: Girdin prey of the mating and α-galactosidase experiments (pACT2-Girdin) (from UniProt Q5SNZ0 1318-1873) (domain or fragment)
- fold of the interaction (α-galactosidase activity) against Go1αQ205L: 2.5 fold
